Data from patent publication US20230391828A1, “REGULATORS OF CELL DIVISION” (TECHNISCHE UNIVERSITÄT DRESDEN, priority 2020, published 2023).
Bridge positions count the residues as written; N and C are the ends. Square brackets hold non-standard residues; d marks the D form. Pra = C#CC[C@H](N)C(=O)O

Experiments:
APC/C (APC11) = target: T1, APC/C (APC11) (Homo sapiens, UniProt Q9NYG5); assay: Pull-down binding assay in HeLa K cell extract, APC/C; settings: Pra peptide clicked to azide agarose or magnetic beads, Western blot
T1 construct: endogenous in cells; host or cells: HeLa K cell extract
Description: (§1) For the protein transfer, the 0.45 μm Immobilon-FL PVDF membrane (Merck Millipore) was used. The membrane was activated in ethanol and then transferred to the Blotting buffer (50 mM SDS-MOPS, 50 mM Tris base, 0.1% SDS, 1 mM EDTA, 20% EtOH). The proteins were transferred using a wet transfer for 1.5 h at 400 mA. Subsequently, the membrane was incubated with the blocking solution, 10% milk in PBS-T (0.02% Tween-20 in PBS), for 1 h at room temperature. To detect proteins of the interest, the membrane was incubated with primary antibodies overnight at 4° C. Followed by washing the membrane 3 times 10 min with PBS-T and incubation with IRDye fluorescently labelled secondary antibodies for 1 h. Prior detection, the membrane was twice washed with PBS-T for 10 min and once with PBS for 10 min. The detection was done using the quantitative near-infrared scanning system Odyssey (LI-COR Biosciences).
HeLa K cell pellet was re-suspended in the extraction buffer (30 mM HEPES pH 7.5, 175 mM NaCl, 2.5 mM MgCl2, 0.25% NP40, 10% glycerol, 1 mM DTT) supplemented with 10 μM MG132 (VWR), 1 mM PMSF (Sigma-Aldrich), complete protease inhibitor cocktail (Roche) and PhosSTOP phosphatase inhibitors (Roche) and incubated for 20 min on ice, followed by centrifugation of cell debris for 15 min at 4° C. 16 100 g. In mean time, inhibitor molecules containing Propargyl (Pra) chemical group were covalently attached to the azide agarose or azide magnetic resin (Jena Bioscience) by Cu(I)-catalysed azide-alkyne cycloaddition reaction. Specifically, the inhibitor molecules were mixed with azide agarose resin in ratio 0.125 μmol inhibitor/25 μl agarose resin and azide magnetic resin in ratio 0.018 μmol inhibitor/20 μl magnetic resin. The reaction was catalysed by 1 mM CuSO4, 0.1 mM TBTA (Sigma-Aldrich) and 1 mM Sodium ascorbate and was performed on the rotating wheel for 30 min at room temperature in the volume of 1 ml. Subsequently, the resin was washed 5 times with the extraction buffer. The inhibitor-agarose resin was added to 1 mg of HeLa K cell extract and the inhibitor-magnetic resin was added to 0.5 mg of HeLa K cell extract followed by incubation at 4° C. for 2 h. Followed by washing the resin 5 times with the extraction buffer. Pull-down proteins were eluted by boiling for 15 min with 1×LDS sample buffer supplemented with 100 mM DTT (agarose resin) or by incubation with 1×LDS sample buffer for 10 min at room temperature followed by taking supernatant that was supplemented with 100 mM DTT and boiling it for 10 min. Samples were subjected to SDS PAGE and Western blot analysis.
(§2) HeLa K cell pellet was re-suspended in the extraction buffer (30 mM HEPES pH 7.5, 175 mM NaCl, 2.5 mM MgCl2, 0.25% NP40, 10% glycerol, 1 mM DTT supplied with complete protease inhibitor cocktail (Roche), PhosSTOP phosphatase inhibitors (Roche), 1 mM PMSF, 10 μM MG132) and incubated for 20 min on ice, followed by centrifugation to clear the lysate for 15 min at 4° C. 16,100 g. In the meantime, inhibitor molecules containing the propargyl-Gly-OH (Pra) chemical group were covalently attached to the azide agarose resin (Jena Bioscience) by Cu(I)-catalysed azide-alkyne cycloaddition reaction. Specifically, the inhibitor molecules were mixed with azide agarose resin in ratio 0.125 μmol inhibitor/20 μl agarose resin. The reaction was catalysed by 0.1 mM CuSO4, 0.5 mM THPTA (Sigma-Aldrich) and 5 mM Sodium ascorbate and was performed on the rotating wheel for 30 min at room temperature in the volume of 1 ml. […]

RBX1 = target: T2, RBX1 (Homo sapiens, UniProt P62877); assay: Pull-down binding assay in HeLa K cell extract, RBX1; settings: azide beads, Western blot
T2 construct: endogenous in cells; host or cells: HeLa K cell extract
Description: as §1
HeLa K cell pellet was re-suspended in the extraction buffer (30 mM HEPES pH 7.5, 175 mM NaCl, 2.5 mM MgCl2, 0.25% NP40, 10% glycerol, 1 mM DTT) supplemented with 10 μM MG132 (VWR), 1 mM PMSF (Sigma-Aldrich), complete protease inhibitor cocktail (Roche) and PhosSTOP phosphatase inhibitors (Roche) and incubated for 20 min on ice, followed by centrifugation of cell debris for 15 min at 4° C. 16 100 g. […]

BMI-1 = target: T3, BMI-1 (Homo sapiens, UniProt P35226); assay: Pull-down binding assay in HeLa K cell extract, BMI-1; settings: azide agarose beads, Western blot
T3 construct: endogenous in cells; host or cells: HeLa K cell extract
T3 sequence (P35226 1-326): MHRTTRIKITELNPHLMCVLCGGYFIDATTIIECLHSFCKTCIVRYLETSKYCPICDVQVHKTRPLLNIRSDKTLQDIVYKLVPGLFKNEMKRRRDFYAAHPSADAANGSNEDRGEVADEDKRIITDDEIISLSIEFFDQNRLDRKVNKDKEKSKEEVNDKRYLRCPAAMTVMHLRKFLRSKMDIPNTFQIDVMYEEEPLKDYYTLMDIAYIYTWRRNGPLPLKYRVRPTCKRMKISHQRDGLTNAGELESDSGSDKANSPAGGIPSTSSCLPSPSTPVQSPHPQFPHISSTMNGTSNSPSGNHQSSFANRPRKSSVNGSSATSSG
Description: as §2, with “ml. Subsequently, the resin was washed five times with the extraction buffer. The inhibitor-agarose resin was added to 2 mg of HeLa K cell extract and incubated at 4° C. for 2 h. Afterwards, the resin was washed four times with the extraction buffer. Pull-down proteins were eluted by incubation with pre-warmed 1×LDS sample buffer for 10 min at room temperature followed by taking supernatant supplemented with 100 mM DTT and boiling for 10 min.” for “ml.”

BRCA1 = target: T4, BRCA1 (Homo sapiens, UniProt P38398); assay: Pull-down binding assay in HeLa K cell extract, BRCA1; settings: azide agarose beads, Western blot
T4 construct: endogenous in cells; host or cells: HeLa K cell extract
Description: as §2, with “ml. Subsequently, the resin was washed five times with the extraction buffer. The inhibitor-agarose resin was added to 2 mg of HeLa K cell extract and incubated at 4° C. for 2 h. Afterwards, the resin was washed four times with the extraction buffer. Pull-down proteins were eluted by incubation with pre-warmed 1×LDS sample buffer for 10 min at room temperature followed by taking supernatant supplemented with 100 mM DTT and boiling for 10 min.” for “ml.”

c-CBL = target: T5, c-CBL (Homo sapiens, UniProt P22681); assay: Pull-down binding assay in HeLa K cell extract, c-CBL; settings: azide agarose beads, Western blot
T5 construct: endogenous in cells; host or cells: HeLa K cell extract
Description: as §2, with “ml. Subsequently, the resin was washed five times with the extraction buffer. The inhibitor-agarose resin was added to 2 mg of HeLa K cell extract and incubated at 4° C. for 2 h. Afterwards, the resin was washed four times with the extraction buffer. Pull-down proteins were eluted by incubation with pre-warmed 1×LDS sample buffer for 10 min at room temperature followed by taking supernatant supplemented with 100 mM DTT and boiling for 10 min.” for “ml.”

c-IAP1 = target: T6, c-IAP1 (Homo sapiens, UniProt Q13490); assay: Pull-down binding assay in HeLa K cell extract, c-IAP1; settings: azide agarose beads, Western blot
T6 construct: endogenous in cells; host or cells: HeLa K cell extract
Description: as §2, with “ml. Subsequently, the resin was washed five times with the extraction buffer. The inhibitor-agarose resin was added to 2 mg of HeLa K cell extract and incubated at 4° C. for 2 h. Afterwards, the resin was washed four times with the extraction buffer. Pull-down proteins were eluted by incubation with pre-warmed 1×LDS sample buffer for 10 min at room temperature followed by taking supernatant supplemented with 100 mM DTT and boiling for 10 min.” for “ml.”

MDM2 = target: T7, MDM2 (Homo sapiens, UniProt Q00987); assay: Pull-down binding assay in HeLa K cell extract, MDM2; settings: azide agarose beads, Western blot
T7 construct: endogenous in cells; host or cells: HeLa K cell extract
Description: as §2, with “ml. Subsequently, the resin was washed five times with the extraction buffer. The inhibitor-agarose resin was added to 2 mg of HeLa K cell extract and incubated at 4° C. for 2 h. Afterwards, the resin was washed four times with the extraction buffer. Pull-down proteins were eluted by incubation with pre-warmed 1×LDS sample buffer for 10 min at room temperature followed by taking supernatant supplemented with 100 mM DTT and boiling for 10 min.” for “ml.”

TRAF2 = target: T8, TRAF2 (Homo sapiens, UniProt Q12933); assay: Pull-down binding assay in HeLa K cell extract, TRAF2; settings: azide agarose beads, Western blot
T8 construct: endogenous in cells; host or cells: HeLa K cell extract
T8 sequence (Q12933 1-501): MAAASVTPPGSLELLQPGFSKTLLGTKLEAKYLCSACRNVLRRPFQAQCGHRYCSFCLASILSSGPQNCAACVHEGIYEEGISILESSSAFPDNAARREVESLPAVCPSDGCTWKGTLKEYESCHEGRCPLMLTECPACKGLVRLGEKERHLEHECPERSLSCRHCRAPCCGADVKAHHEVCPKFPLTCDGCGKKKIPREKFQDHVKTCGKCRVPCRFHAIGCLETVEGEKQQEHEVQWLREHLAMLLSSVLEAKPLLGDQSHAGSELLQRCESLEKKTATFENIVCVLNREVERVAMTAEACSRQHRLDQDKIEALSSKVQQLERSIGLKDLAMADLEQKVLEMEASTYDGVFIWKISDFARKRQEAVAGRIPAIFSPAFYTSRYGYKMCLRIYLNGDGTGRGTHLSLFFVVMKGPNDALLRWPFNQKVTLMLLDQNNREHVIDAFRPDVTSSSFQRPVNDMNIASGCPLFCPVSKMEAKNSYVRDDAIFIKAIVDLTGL
Description: as §2, with “ml. Subsequently, the resin was washed five times with the extraction buffer. The inhibitor-agarose resin was added to 2 mg of HeLa K cell extract and incubated at 4° C. for 2 h. Afterwards, the resin was washed four times with the extraction buffer. Pull-down proteins were eluted by incubation with pre-warmed 1×LDS sample buffer for 10 min at room temperature followed by taking supernatant supplemented with 100 mM DTT and boiling for 10 min.” for “ml.”

T2 sequence (P62877 whole entry): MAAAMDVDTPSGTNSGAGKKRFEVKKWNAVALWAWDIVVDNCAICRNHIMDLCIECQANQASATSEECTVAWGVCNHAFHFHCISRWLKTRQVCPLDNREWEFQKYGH
T4 sequence (P38398 whole entry): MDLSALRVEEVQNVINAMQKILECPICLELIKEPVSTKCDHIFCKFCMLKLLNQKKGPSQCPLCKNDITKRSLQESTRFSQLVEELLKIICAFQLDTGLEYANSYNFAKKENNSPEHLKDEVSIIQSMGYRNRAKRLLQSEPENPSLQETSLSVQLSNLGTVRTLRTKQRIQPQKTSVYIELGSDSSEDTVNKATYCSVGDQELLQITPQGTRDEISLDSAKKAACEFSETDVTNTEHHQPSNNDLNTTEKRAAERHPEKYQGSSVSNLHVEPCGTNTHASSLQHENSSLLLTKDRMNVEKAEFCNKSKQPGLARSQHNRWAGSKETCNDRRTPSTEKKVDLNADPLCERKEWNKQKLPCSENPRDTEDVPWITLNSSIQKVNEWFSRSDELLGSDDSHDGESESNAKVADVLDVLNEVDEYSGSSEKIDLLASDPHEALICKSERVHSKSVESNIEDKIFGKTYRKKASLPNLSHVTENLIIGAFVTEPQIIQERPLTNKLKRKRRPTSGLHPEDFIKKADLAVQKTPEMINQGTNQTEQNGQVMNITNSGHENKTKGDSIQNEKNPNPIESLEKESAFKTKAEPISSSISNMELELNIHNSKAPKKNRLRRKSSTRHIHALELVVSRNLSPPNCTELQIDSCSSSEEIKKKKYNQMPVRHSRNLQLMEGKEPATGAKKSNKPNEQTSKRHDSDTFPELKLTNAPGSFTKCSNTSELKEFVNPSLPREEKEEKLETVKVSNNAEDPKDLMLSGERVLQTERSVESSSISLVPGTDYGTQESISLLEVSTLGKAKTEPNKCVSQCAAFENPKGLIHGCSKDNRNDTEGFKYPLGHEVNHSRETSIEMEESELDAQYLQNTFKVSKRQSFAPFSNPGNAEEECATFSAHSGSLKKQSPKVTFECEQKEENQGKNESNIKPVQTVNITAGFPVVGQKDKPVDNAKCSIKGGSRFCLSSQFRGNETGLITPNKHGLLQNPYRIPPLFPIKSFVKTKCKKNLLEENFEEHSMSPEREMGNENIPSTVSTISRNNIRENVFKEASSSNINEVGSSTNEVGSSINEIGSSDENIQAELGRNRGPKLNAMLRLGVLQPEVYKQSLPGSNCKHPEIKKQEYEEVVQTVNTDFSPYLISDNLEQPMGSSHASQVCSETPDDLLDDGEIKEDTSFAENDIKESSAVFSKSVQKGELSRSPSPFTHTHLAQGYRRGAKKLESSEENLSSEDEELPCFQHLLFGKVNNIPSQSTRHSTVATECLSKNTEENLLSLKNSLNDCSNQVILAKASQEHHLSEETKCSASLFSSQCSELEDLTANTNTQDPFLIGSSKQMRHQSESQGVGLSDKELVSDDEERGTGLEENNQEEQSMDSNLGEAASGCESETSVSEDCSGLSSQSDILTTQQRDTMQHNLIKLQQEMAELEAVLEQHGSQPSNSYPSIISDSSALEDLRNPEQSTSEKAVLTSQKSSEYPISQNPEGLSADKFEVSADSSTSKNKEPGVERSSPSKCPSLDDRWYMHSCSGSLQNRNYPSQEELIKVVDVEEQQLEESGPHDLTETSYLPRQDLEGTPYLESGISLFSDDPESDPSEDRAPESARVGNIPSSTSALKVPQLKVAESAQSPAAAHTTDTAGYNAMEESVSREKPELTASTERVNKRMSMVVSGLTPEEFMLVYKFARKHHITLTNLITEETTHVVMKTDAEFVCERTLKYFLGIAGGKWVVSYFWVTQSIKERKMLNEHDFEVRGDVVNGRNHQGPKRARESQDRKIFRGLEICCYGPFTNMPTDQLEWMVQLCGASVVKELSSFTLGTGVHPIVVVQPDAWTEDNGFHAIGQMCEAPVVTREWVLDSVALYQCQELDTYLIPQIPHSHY
T7 sequence (Q00987 whole entry): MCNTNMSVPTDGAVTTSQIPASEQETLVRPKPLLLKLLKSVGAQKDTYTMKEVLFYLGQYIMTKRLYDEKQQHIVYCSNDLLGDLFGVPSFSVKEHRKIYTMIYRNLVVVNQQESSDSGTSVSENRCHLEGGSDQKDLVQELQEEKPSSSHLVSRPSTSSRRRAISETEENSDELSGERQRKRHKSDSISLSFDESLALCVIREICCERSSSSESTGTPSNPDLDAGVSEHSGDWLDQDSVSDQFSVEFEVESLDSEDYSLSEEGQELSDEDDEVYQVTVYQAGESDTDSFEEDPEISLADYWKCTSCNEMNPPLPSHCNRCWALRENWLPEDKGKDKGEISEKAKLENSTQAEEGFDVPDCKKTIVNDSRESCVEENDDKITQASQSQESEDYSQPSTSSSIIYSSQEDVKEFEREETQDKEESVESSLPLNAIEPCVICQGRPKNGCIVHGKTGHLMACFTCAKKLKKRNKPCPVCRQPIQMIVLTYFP
T6 sequence (Q13490 whole entry): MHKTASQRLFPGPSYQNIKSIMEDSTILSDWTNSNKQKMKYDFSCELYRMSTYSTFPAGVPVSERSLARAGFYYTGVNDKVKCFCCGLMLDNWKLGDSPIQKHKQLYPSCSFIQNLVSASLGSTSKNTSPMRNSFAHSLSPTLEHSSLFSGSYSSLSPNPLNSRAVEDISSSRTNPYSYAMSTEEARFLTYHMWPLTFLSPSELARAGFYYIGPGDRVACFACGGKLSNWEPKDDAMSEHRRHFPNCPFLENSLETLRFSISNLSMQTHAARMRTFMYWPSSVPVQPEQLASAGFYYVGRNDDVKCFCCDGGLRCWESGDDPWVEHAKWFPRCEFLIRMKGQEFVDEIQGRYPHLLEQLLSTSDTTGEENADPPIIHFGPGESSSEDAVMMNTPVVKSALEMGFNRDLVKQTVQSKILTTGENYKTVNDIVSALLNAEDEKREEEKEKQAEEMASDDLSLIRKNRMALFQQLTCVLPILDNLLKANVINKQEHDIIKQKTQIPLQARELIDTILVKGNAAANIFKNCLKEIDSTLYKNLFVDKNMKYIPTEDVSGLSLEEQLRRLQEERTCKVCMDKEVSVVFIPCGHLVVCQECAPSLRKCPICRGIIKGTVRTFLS

Ac-cyclo(3,12)-PraRCHWGPRTFWCR-NH2 (Ac-[Pra]RCHWGPRTFWCR-NH2; disulfide 3-12; SMILES C#CC[C@H](NC(C)=O)C(=O)N[C@@H](CCCNC(=N)N)C(=O)N[C@H]1CSSC[C@@H](C(=O)N[C@@H](CCCNC(=N)N)C(N)=O)NC(=O)[C@H](Cc2c[nH]c3ccccc23)NC(=O)[C@H](Cc2ccccc2)NC(=O)[C@H]([C@@H](C)O)NC(=O)[C@H](CCCNC(=N)N)NC(=O)[C@@H]2CCCN2C(=O)CNC(=O)[C@H](Cc2c[nH]c3ccccc23)NC(=O)[C@H](Cc2c[nH]cn2)NC1=O) [G1-3Pra]
binds: binding to the APC/C (pull-down) (APC/C (APC11)) | binding to RBX1 (pull-down) (RBX1) | binding to BMI-1 (pull-down) (BMI-1) | binding to BRCA1 (pull-down) (BRCA1) | binding to c-CBL (pull-down) (c-CBL) | binding to c-IAP1 (pull-down) (c-IAP1) | binding to MDM2 (pull-down) (MDM2) | binding to TRAF2 (pull-down) (TRAF2)
